According to patent publication US20250376519A1 (JIANGSU HENGRUI PHARMACEUTICALS, published 2025):

T1: human DLL3 on cells (human, UniProt Q9NYJ7 27-618)
T1 construct: Endogenous on H1184 and SHP77; Cell line is named under assay; also called H1184; DLL3/H82
T1 sequence: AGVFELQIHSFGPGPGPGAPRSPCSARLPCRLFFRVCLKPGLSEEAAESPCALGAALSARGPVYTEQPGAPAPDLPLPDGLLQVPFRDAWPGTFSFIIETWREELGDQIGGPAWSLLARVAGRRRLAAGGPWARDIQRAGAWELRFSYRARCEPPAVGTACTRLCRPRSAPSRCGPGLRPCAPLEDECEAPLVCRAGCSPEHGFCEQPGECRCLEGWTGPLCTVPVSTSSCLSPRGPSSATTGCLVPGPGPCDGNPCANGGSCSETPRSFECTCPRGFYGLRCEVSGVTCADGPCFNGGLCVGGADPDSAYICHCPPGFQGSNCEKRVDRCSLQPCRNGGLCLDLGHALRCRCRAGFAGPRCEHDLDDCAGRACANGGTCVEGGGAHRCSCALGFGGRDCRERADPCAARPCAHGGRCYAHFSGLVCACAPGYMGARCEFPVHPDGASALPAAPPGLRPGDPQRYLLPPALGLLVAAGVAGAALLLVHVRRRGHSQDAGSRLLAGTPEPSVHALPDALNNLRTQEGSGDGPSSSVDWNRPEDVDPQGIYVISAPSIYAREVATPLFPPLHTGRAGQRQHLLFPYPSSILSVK

T2: human DLL3 (ACRO, DLL3-H52H4) (human, UniProt Q9NYJ7 27-492)
T2 construct: Bought
T2 sequence: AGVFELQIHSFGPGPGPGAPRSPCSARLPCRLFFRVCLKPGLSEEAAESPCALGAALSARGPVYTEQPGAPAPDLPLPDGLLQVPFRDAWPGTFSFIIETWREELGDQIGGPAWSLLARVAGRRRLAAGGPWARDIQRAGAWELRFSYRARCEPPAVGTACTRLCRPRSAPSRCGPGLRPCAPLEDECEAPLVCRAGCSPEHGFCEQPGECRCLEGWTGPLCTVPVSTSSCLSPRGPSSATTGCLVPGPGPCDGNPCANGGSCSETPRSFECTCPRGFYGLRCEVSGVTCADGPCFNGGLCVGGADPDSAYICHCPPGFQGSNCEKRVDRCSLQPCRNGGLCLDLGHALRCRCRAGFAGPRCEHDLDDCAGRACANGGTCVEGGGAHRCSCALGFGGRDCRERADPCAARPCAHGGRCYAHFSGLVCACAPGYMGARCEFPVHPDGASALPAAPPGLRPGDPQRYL


Assays:
human DLL3 on cells [1] = molecular target: T1, human DLL3 on cells; experiment: flow cytometry, DLL3/H82 cells
Experimental: (§1) The plates were centrifuged at 300 g for 5 min, and the supernatant was removed. Different concentrations of test antibodies were added at 100 μL/well. The plates were incubated in the dark in a refrigerator at 4° C. for 1 h. After 3 centrifugal washes at 300 g, working concentrations of APC anti-human IgG Fc (BioLegend, 410712) or PE F(ab′)2-goat anti-human IgG (invitrogen, H10104) were added. The plates were incubated in the dark in a refrigerator at 4° C. for 40 min. After 3 centrifugal washes at 300 g, the geometric mean fluorescence intensity was measured on an Invitrogen flow cytometer, and the EC50 values for the binding of the antibodies to DLL3-expressing cells were calculated.

[2] = molecular target: T2, human DLL3 (ACRO, DLL3-H52H4); experiment: SPR Biacore 8K, Ab captured on Protein A
Summary of the method: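 Antibodies captured on a Protein A chip for 18 s; DLL3 or CD3D&3E antigen flowed 180 s, then 600 s dissociation, with real-time detection. Regeneration used 10 mM glycine-HCl pH 1.5 between cycles. Kinetics were obtained by 1:1 model fitting.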

human DLL3 on cells [3] = molecular target: T1, human DLL3 on cells; experiment: flow cytometry, H1184 cells
Experimental: as §1

Binder	EC50 (human DLL3 on cells [1])	Emax (human DLL3 on cells [1])	Kd [2]	koff [2]	kon [2]	Emax (human DLL3 on cells [3])
hu110L1H2 (antibody, human IgG1, kappa, V domains shown) VH: EVQLVQSGAEVKKPGASVKVSCKTSGYTFTDYYMNWVRQAPGQSLEWMGIINPYNGGTSYTQKFKGRVTITVDKSASTAYMELSSLRSEDTAVYYCARHFYDSSYLTYSTMDYWGQGTTVTVSS VL: DIVMTQSPDSLAVSLGERATINCKASENVGIFVSWYQQKPGQSPKLLIYGASNRYTGVPDRFSGSGSATDFTLTISSLQAEDVAVYYCGQSHSYPLTFGQGTKLEIKR	1.31 nM	4700	0.0819 nM	4.26e-05 s⁻¹	520000 M⁻¹ s⁻¹	–
hu110L2H3 (antibody, human IgG1, kappa, V domains shown) VH: EVQLVQSGAEVKKPGASVKVSCKTSGYTFTDYYMNWVRQAPGQSLEWMGIINPYQGGTSYTQKFKGRVTITVDKSASTAYMELSSLRSEDTAVYYCARHFYDSSYLTYSTMDYWGQGTTVTVSS VL: NIVMTQSPKSLAVSLGERATINCKASENVGIFVSWYQQKPGQSPKLLIYGASNRYTGVPDRFSGSGSATDFTLTISSLQAEDVADYYCGQSHSYPLTFGQGTKLEIKR	1.32 nM	4570	0.117 nM	6.45e-05 s⁻¹	550000 M⁻¹ s⁻¹	–
hu110L1H1 (antibody, human IgG1, kappa, V domains shown) VH: EVQLVQSGAEVKKPGASVKVSCKASGYTFTDYYMNWVRQAPGQRLEWMGIINPYNGGTSYTQKFKGRVTITVDKSASTAYMELSSLRSEDTAVYYCARHFYDSSYLTYSTMDYWGQGTTVTVSS VL: DIVMTQSPDSLAVSLGERATINCKASENVGIFVSWYQQKPGQSPKLLIYGASNRYTGVPDRFSGSGSATDFTLTISSLQAEDVAVYYCGQSHSYPLTFGQGTKLEIKR	1.15 nM	4470	0.068 nM	4.17e-05 s⁻¹	614000 M⁻¹ s⁻¹	–
hu110L1H5 (antibody, human IgG1, kappa, V domains shown) VH: EVQLVQSGAEVKKPGASVKVSCKTSGYTFTDYYMNWVRQAPGQSLEWMGIINPYTGGTSYTQKFKGRVTITVDKSASTAYMELSSLRSEDTAVYYCARHFYDSSYLTYSTMDYWGQGTTVTVSS VL: DIVMTQSPDSLAVSLGERATINCKASENVGIFVSWYQQKPGQSPKLLIYGASNRYTGVPDRFSGSGSATDFTLTISSLQAEDVAVYYCGQSHSYPLTFGQGTKLEIKR	1.61 nM	4610	0.141 nM	6.41e-05 s⁻¹	454000 M⁻¹ s⁻¹	–
hu110L1H3 (antibody, human IgG1, kappa, V domains shown) VH: EVQLVQSGAEVKKPGASVKVSCKTSGYTFTDYYMNWVRQAPGQSLEWMGIINPYQGGTSYTQKFKGRVTITVDKSASTAYMELSSLRSEDTAVYYCARHFYDSSYLTYSTMDYWGQGTTVTVSS VL: DIVMTQSPDSLAVSLGERATINCKASENVGIFVSWYQQKPGQSPKLLIYGASNRYTGVPDRFSGSGSATDFTLTISSLQAEDVAVYYCGQSHSYPLTFGQGTKLEIKR	1.15 nM	4560	0.0843 nM	4.75e-05 s⁻¹	564000 M⁻¹ s⁻¹	–
hu110L1H6 (antibody, human IgG1, kappa, V domains shown) VH: EVQLVQSGAEVKKPGASVKVSCKTSGYTFTDYYMNWVRQAPGQSLEWMGIINPYNVGTSYTQKFKGRVTITVDKSASTAYMELSSLRSEDTAVYYCARHFYDSSYLTYSTMDYWGQGTTVTVSS VL: DIVMTQSPDSLAVSLGERATINCKASENVGIFVSWYQQKPGQSPKLLIYGASNRYTGVPDRFSGSGSATDFTLTISSLQAEDVAVYYCGQSHSYPLTFGQGTKLEIKR	1.66 nM	4620	0.102 nM	5.32e-05 s⁻¹	520000 M⁻¹ s⁻¹	–
hu110L1H4 (antibody, human IgG1, kappa, V domains shown) VH: EVQLVQSGAEVKKPGASVKVSCKTSGYTFTDYYMNWVRQAPGQSLEWMGIINPYSGGTSYTQKFKGRVTITVDKSASTAYMELSSLRSEDTAVYYCARHFYDSSYLTYSTMDYWGQGTTVTVSS VL: DIVMTQSPDSLAVSLGERATINCKASENVGIFVSWYQQKPGQSPKLLIYGASNRYTGVPDRFSGSGSATDFTLTISSLQAEDVAVYYCGQSHSYPLTFGQGTKLEIKR	1.51 nM	4580	0.0911 nM	4.8e-05 s⁻¹	527000 M⁻¹ s⁻¹	–
hu110L2H2 (antibody, human IgG1, kappa, V domains shown) VH: EVQLVQSGAEVKKPGASVKVSCKTSGYTFTDYYMNWVRQAPGQSLEWMGIINPYNGGTSYTQKFKGRVTITVDKSASTAYMELSSLRSEDTAVYYCARHFYDSSYLTYSTMDYWGQGTTVTVSS VL: NIVMTQSPKSLAVSLGERATINCKASENVGIFVSWYQQKPGQSPKLLIYGASNRYTGVPDRFSGSGSATDFTLTISSLQAEDVADYYCGQSHSYPLTFGQGTKLEIKR	1.25 nM	4750	0.12 nM	6.25e-05 s⁻¹	521000 M⁻¹ s⁻¹	–
hu110L2H1 (antibody, human IgG1, kappa, V domains shown) VH: EVQLVQSGAEVKKPGASVKVSCKASGYTFTDYYMNWVRQAPGQRLEWMGIINPYNGGTSYTQKFKGRVTITVDKSASTAYMELSSLRSEDTAVYYCARHFYDSSYLTYSTMDYWGQGTTVTVSS VL: NIVMTQSPKSLAVSLGERATINCKASENVGIFVSWYQQKPGQSPKLLIYGASNRYTGVPDRFSGSGSATDFTLTISSLQAEDVADYYCGQSHSYPLTFGQGTKLEIKR	1.25 nM	4720	0.115 nM	5.84e-05 s⁻¹	509000 M⁻¹ s⁻¹	–
hu98L2H1 (antibody, human IgG1, kappa, V domains shown) VH: EVQLVESGGGLVQPGGSLRLSCAASGFTFSDYGIHWVRQAPGKGLEWVAYISSGGYTIYYADTVKGRFTISRDNAKNSLYLQMNSLRAEDTAVYYCARGDYDDIFYTMDYWGQGTTVTVSS VL: DIQMTQSPSSLSASVGDRVTITCRASRDITKFLNWYQQKPGKAVKLLIYYTSRLHSGVPSRFSGSGSGTDYTLTISSLQPEDFATYYCQQGNTLPWTFGGGTKVEIKR	–	–	0.269 nM	0.000389 s⁻¹	1.45e+06 M⁻¹ s⁻¹	2470
hu98L3H2 (antibody, human IgG1, kappa, V domains shown) VH: EVQLVESGGGLVQPGGSLRLSCAASGFTFSDYGIHWVRQAPGKGLEWVAYISSGGYTIYYADTVKGRFTISRDNAKNSLYLQMNSLRAEDTAVYYCARGDYEDIFYTMDYWGQGTTVTVSS VL: DIQMTQSPSSLSASVGDRVTITCRASRDITKFLNWYQQKPGGAVKLLIYYTSRLHSGVPSRFSGSGSGTDYTLTISSLQPEDFATYYCQQGNTLPWTFGGGTKVEIKR	–	–	0.464 nM	0.000732 s⁻¹	1.58e+06 M⁻¹ s⁻¹	2350
hu98L3H1 (antibody, human IgG1, kappa, V domains shown) VH: EVQLVESGGGLVQPGGSLRLSCAASGFTFSDYGIHWVRQAPGKGLEWVAYISSGGYTIYYADTVKGRFTISRDNAKNSLYLQMNSLRAEDTAVYYCARGDYDDIFYTMDYWGQGTTVTVSS VL: DIQMTQSPSSLSASVGDRVTITCRASRDITKFLNWYQQKPGGAVKLLIYYTSRLHSGVPSRFSGSGSGTDYTLTISSLQPEDFATYYCQQGNTLPWTFGGGTKVEIKR	–	–	0.232 nM	0.000372 s⁻¹	1.6e+06 M⁻¹ s⁻¹	2440
hu98L3H4 (antibody, human IgG1, kappa, V domains shown) VH: EVQLVESGGGLVQPGGSLRLSCAASGFTFSDYGIHWVRQAPGKGLEWVAYISSGGYTSYYADTVKGRFTISRDNAKNSLYLQMNSLRAEDTAVYYCARGDYEDIFYTMDYWGQGTTVTVSS VL: DIQMTQSPSSLSASVGDRVTITCRASRDITKFLNWYQQKPGGAVKLLIYYTSRLHSGVPSRFSGSGSGTDYTLTISSLQPEDFATYYCQQGNTLPWTFGGGTKVEIKR	–	–	1.11 nM	0.00151 s⁻¹	1.36e+06 M⁻¹ s⁻¹	1600
hu98L3H5 (antibody, human IgG1, kappa, V domains shown) VH: EVQLVESGGGLVQPGGSLRLSCAASGFTFSDYGMHWVRQAPGKGLEWVAYISSGGYTSYYADTVKGRFTISRDNAKNSLYLQMNSLRAEDTAVYYCARGDYEDIFYTMDYWGQGTTVTVSS VL: DIQMTQSPSSLSASVGDRVTITCRASRDITKFLNWYQQKPGGAVKLLIYYTSRLHSGVPSRFSGSGSGTDYTLTISSLQPEDFATYYCQQGNTLPWTFGGGTKVEIKR	–	–	1.22 nM	0.00173 s⁻¹	1.42e+06 M⁻¹ s⁻¹	1540
